Molecular target: the molecule itself
Test: crystal structure

B1: Methanococcus jannaschii Thi4 (thiazole synthase) (enzyme)
chain: MVNLMNIKDIKLNADETKTTKAILKASFDMWLDIVEADVVIVGAGPSGLTCARYLAKEGFKVVVLERHLAFGGGTWGGGMGFPYIVVEEPADELLREVGIKLIDMGDGYYVADSVEVPAKLAVAAMDAGAKILTGIVVEDLILREDGVAGVVINSYAIERAGLHIDPLTIRSKVVVDATGHEASIVNILVKKNKLEADVPGEKSMWAEKGENALLRNTREVYPNLFVCGMAANASHGGYRMGAIFGGMYLSGKLCAELITEKLKNKE
B1 was tested, and the “stoichiometry N” value was 8.

Source: publication PMC4811699 (Biochemistry, 2016)
